Measured values from EP2974737A1 (Ablynx N.V., dated 2016).
Where a chain is given by its changes, count along the chain named.

B1: SEQ ID NO: 85 (VHH)
VHH: EVQLVESGGGSVQPGGSLRLSCAASRSIGRLDRMGWYRHRPGEPRELVATITGGSSINYGDSVKGRFTISIDNSKNTVYLQMNSLRPEDTAVYYCNFNKYVTSRDTWGQGTLVQVGG
B2: SEQ ID NO: 89 (VHH)
VHH: B1 VHH with P14A
B3: SEQ ID NO: 87 (VHH)
VHH: B1 VHH with Q114T
B4: SEQ ID NO: 88 (VHH)
VHH: B1 VHH with G116S, G117S
B5: SEQ ID NO: 86 (VHH)
VHH: B1 VHH with G116S, G117S

Biological target: T1, purified interference factor(s) from Donor B (human)
T1 construct: the text names the donors 8, 19 and 30; also called interference in serum from Donor B
Test: SPR, interference factor immobilized; % of Fig. 9 reference

interference binding, % of Reference Sequence | Binder
5% | B1
5% | B2
5% | B3
5% | B4
6% | B5

Biological target: T2, purified interference factor(s) from Donor C (human)
T2 construct: the text names the donors 8, 19 and 30; also called interference in serum from Donor C
Test: as above

interference binding, % of Reference Sequence | Binder
42% | B1
17% | B2
39% | B3
11% | B4
86% | B5

Biological target: T3, purified interference factor(s) from Donor A (human)
T3 construct: also called interference in serum from Donor A
Test: as above

interference binding, % of Reference Sequence | Binder
46% | B1
14% | B2
51% | B3
1% | B4
76% | B5
